From patent publication US20220406376A1 (MacroGenics, published 2022) come the findings set out here.

Assay [1] has as its target T1, CD137 on the surface of cells (activated human T cells; engineered CHO cells) (human, UniProt Q07011 24-255).
T1 construct: whole, on cells; also called human CD137; cell surface expressed CD137
The experiment in a line: flow cytometry on activated pan T cells gated CD8+, anti-hFc APC MFI. The method, then: Three antibodies were selected for further study. For such evaluations, purified pan T-cells (see above) were stimulated with anti-CD3/CD28 beads (cells:beads=1:1) for 72 hours in the presence of IL-2 (100 U/mL). 100 μL of activated T cells (1.0×10⁶ cells/mL) and 100 μL of serially diluted (5- or 10-fold dilutions) test article (antibody or bispecific diabody) was added to each well of microtiter assay plate(s), mixed and incubated at RT for 45 min. The cells were washed with FACS Buffer and secondary antibody (anti-human-Fc region-APC) was then added to each well; mixed and incubated at RT for 30 min. Cells were then washed FACS Buffer and T cell surface marker antibodies (anti-CD4 labeled with V510, and anti-CD8 labeled with FITC) were then added to each well; mixed and incubated at RT for 30 min. Cells were washed and resuspended in 100 μL FACS Buffer and analyzed by flow cytometry (BD LSR Fortessa or FACSCanto 11) for cell event collection. Data analysis were performed via FloJo v10.
Chimeric antibodies having human IgG1 Fc regions and murine VH/VL domains were generated (designated: chCD137 MAB-1, chCD137 MAB-2, chCD137 MAB-3, chCD137 MAB-4 and chCD137 MAB-5, respectively), and were tested for their ability to bind to activated CD8⁺ T cells.
A general note: In flow cytometry, cells or beads pass a laser one at a time.

In assay [2] the target is T2, extracellular portion of human CD137 fused to a histidine-containing peptide (human, UniProt Q07011 24-186).
T2 construct: extracellular domain; also called huCD137; His-tagged soluble human CD137
The experiment in a line: SPR (BIACORE); antibody captured on anti-human Fc; huCD137 25 and 100 nM; 1:1 Langmuir. The method, then:
Thus, an extracellular portion of human CD137 fused to a histidine-containing peptide (“huCD137”) was passed over a surface coated with immobilized antibody. Briefly, each test molecule was captured onto an F(ab)₂ goat-anti-human Fc-coated surface and then incubated in the presence of different concentrations (25 nM and 100 nM) of huCD137. The kinetics of binding were determined via BIACORE® analysis binding (normalized 1:1 Langmuir binding model).
In general terms: SPR reads the build-up and loss of mass on a sensor chip optically.

In assay [3] the target is T3, 5T4 on the surface of target cells (JIMT-1, SKOV-3) (UniProt Q13641 32-420, limits assumed).
T3 construct: whole, on cells
T3 sequence (looked up): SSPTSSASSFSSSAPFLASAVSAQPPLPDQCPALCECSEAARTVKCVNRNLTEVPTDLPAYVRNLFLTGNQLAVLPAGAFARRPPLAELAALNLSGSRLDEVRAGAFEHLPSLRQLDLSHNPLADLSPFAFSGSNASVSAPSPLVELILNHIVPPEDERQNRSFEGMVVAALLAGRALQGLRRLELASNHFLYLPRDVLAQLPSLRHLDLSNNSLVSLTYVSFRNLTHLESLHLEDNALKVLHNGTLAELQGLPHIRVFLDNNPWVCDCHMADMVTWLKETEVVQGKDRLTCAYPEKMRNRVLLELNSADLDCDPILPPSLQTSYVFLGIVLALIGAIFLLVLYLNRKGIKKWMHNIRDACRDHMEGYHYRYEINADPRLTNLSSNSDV
The experiment in a line: flow cytometry on JIMT-1 (5T4 hi) cells, anti-hFc APC MFI.

For assay [4], the target named is T1, CD137 on the surface of cells …. The experiment in a line: flow cytometry on activated CD8+ T cells (donor D59788, CD8 FITC), anti-hFc APC MFI.
Assay [5] has the same target. The experiment in a line: flow cytometry on activated pan T cells (donor D46433, CD8 PE), anti-hFc APC MFI.
For assay [6] the target is unchanged. Described as above. This is another data set of the same source.
Assay [7] has as its target T4, HER2/neu on the surface of target cells (N87, JIMT-1, MCF-7, MDA-MB231) (UniProt P04626 23-1255, limits assumed).
T4 construct: whole, on cells
The experiment in a line: flow cytometry on N87 cells, anti-hFc APC MFI.

Where a chain is given by its changes, count along the chain named.

T1 sequence (Q07011 24-255, change not shown): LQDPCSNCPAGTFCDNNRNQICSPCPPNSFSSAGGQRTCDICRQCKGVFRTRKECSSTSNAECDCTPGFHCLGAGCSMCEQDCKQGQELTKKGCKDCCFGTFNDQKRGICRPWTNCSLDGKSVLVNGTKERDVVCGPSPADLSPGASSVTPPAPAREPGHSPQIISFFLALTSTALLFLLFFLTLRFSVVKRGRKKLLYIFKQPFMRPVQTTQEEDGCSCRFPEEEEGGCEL

B1: chCD137 MAB-5 (antibody, V domains shown)
VH: QVQLKESGPGLVAPSQSLSITCTVSGFSLTSYDISWIRQPPGKGLEWLGVVWTGGGTNYNSAFMSRLSISKDNSKSQVFLKMNSLQTDDTAIYYCERVDYWGQGTSVTVSS
VL: DVVMTQTPLSLPVSLGDQASISCRSSQSLVHSNGNTYLHWYLQKPGQSPKLLIYKVSNRFSGVPDRFSGSGSGTDFTLKISRVEAEDLGVYFCSQSTHVPWTFGGGTKLEIK
Take B1: in assay [1], the EC50 (read off the curve) (as a rule, the concentration giving half of the maximal effect) was ~100 ng/mL.

B2: CD137 MAB-1 (antibody, V domains shown)
VH: QVQLQQWGAGLLKPSETLSLTCAVYGGSFSGYYWSWIRQSPEKGLEWIGEINHGGYVTYNPSLESRVTISVDTSKNQFSLKLSSVTAADTAVYYCARDYGPGNYDWYFDLWGRGTLVTVSS
VL: EIVLTQSPATLSLSPGERATLSCRASQSVSSYLAWYQQKPGQAPRLLIYDASNRATGIPARFSGSGSGTDFTLTISSLEPEDFAVYYCQQRSNWPPALTFGGGTKVEIK
notes: also called urelumab; BMS-663513
In the case of B2, the “EC50 (read off the curve)” value in assay [1] was ~5 ng/mL.

B3: chCD137 MAB-3 (antibody, V domains shown)
VH: QVQLQQPGAELVRPGASVKLSCKASGYTFTSYWINWVKQRPGQGLEWIGNIYPSDSYTNYNQKFKDKATLTVDKSSSTAYMQLSSPTSEDSAVYYCTRDYGSSYSFDYWGQGTTLTVSS
VL: DIQMTQTTSSLSASLGDRVTISCRPSQDISNYLNWYQQKPDGTVKLLIYYTSRLRSGVPSRFSGSGSGTDYSLTISNLEQEDIATYFCQQGDTLPYTFGGGTKLEIK
Take B3: in assay [2], the Kd (commonly the constant that tells how readily two partners part at equilibrium) turned out to be 23 nM; the dissociation rate constant (koff) (usually the rate constant with which the complex falls apart) stood at 0.02 s⁻¹; the on-rate (kon) – broadly, the rate constant with which the complex forms – is 890000 M⁻¹ s⁻¹. Also, the “EC50 (read off the curve)” value in assay [1] was ~2 ng/mL.

B4: chCD137 MAB-4 (antibody, V domains shown)
VH: QVQLQQPGAELVRPGASVKLSCKASGYTFTSYWINWVKQRPGQGLEWIGNIYPSDSYTNYDQKFKDKATLTVDKSSSTAYMQLSSPTSEDSAVYYCTKSGEYGKIGYYAMDYWGQGTSVTVSS
VL: B3 VL with P25A, R55H, D92N
In assay [2], B4 came in with a dissociation constant (Kd) of 6.1 nM, a koff of 0.00092 s⁻¹ and an on-rate (kon) of 150000 M⁻¹ s⁻¹. For the same molecule, the “EC50 (read off the curve)” value in assay [1] is ~20 ng/mL.

B5: TRIDENT-1 (bispecific antibody, human IgG1, kappa, L234A L235A)
chain 1: DIQMTQSPSSLSASVGDRVTITCRPSQDISNYLNWYQQKPDKTVKLLIYYTSRLRSGVPSRFSGSGSGTDFTFTISSLQPEDIATYFCQQGDTLPYTFGQGTKLEIKGGGSGGGGQVQLVQSGAEVKKPGASVKVSCKASGYTFTSYWINWVKQAPGQGLEWIGNIYPSDSYTNYNQKFKDKATITADKSTSTAYMELSSLRSEDTAVYYCTRDYGSAYSMSTWGQGTTVTVSSASTKGEVAACEKEVAALEKEVAALEKEVAALEKGGGDKTHTCPPCPAPEAAGGPSVFLFPPKPKDTLMISRTPEVTCVVVDVSHEDPEVKFNWYVDGVEVHNAKTKPREEQYNSTYRVVSVLTVLHQDWLNGKEYKCKVSNKALPAPIEKTISKAKGQPREPQVYTLPPSREEMTKNQVSLWCLVKGFYPSDIAVEWESNGQPENNYKTTPPVLDSDGSFFLYSKLTVDKSRWQQGNVFSCSVMHEALHNHYTQKSLSLSPGK
chain 2: DIQMTQSPSSLSASVGDRVTITCRPSQDISNYLNWYQQKPDKTVKLLIYYTSRLRSGVPSRFSGSGSGTDFTFTISSLQPEDIATYFCQQGDTLPYTFGQGTKLEIKGGGSGGGGQVQLVQSGAEVKKPGASVKVSCKASGYTFTSYWINWVKQAPGQGLEWIGNIYPSDSYTNYNQKFKDKATITADKSTSTAYMELSSLRSEDTAVYYCTRDYGSAYSMSTWGQGTTVTVSSASTKGKVAACKEKVAALKEKVAALKEKVAALKE
heavy: QVTLRESGPALVKPTQTLTLTCTFSGFSLSTSGMSVGWIRQPPGKALEWLADIWWDDKKDYNPSLKSRLTISKDTSKNQVVLKVTNMDPADTATYYCARSMITNWYFDVWGAGTTVTVSSASTKGPSVFPLAPSSKSTSGGTAALGCLVKDYFPEPVTVSWNSGALTSGVHTFPAVLQSSGLYSLSSVVTVPSSSLGTQTYICNVNHKPSNTKVDKRVEPKSCDKTHTCPPCPAPEAAGGPSVFLFPPKPKDTLMISRTPEVTCVVVDVSHEDPEVKFNWYVDGVEVHNAKTKPREEQYNSTYRVVSVLTVLHQDWLNGKEYKCKVSNKALPAPIEKTISKAKGQPREPQVYTLPPSREEMTKNQVSLSCAVKGFYPSDIAVEWESNGQPENNYKTTPPVLDSDGSFFLVSKLTVDKSRWQQGNVFSCSVMHEALHNRYTQKSLSLSPGK
light: DIQMTQSPSTLSASVGDRVTITCRASQSVGYMHWYQQKPGKAPKLLIYDTSKLASGVPSRFSGSGSGTEFTLTISSLQPDDFATYYCFQGSGYPFTFGGGTKLEIKRTVAAPSVFIFPPSDEQLKSGTASVVCLLNNFYPREAKVQWKVDNALQSGNSQESVTEQDSKDSTYSLSSTLTLSKADYEKHKVYACEVTHQGLSSPVTKSFNRGEC
notes: also called CD137×CD137×RSV control molecule; CD137×RSV control molecule
B5: the binding result in assay [3] is “no binding (tested: 10 ug/mL)”; in assay [7], “no binding (tested: about 60 nM (last point))”. The results for the “EC50 (read off the curve)” value in assay [4], in assay [5] and in assay [6] were ~7 ng/mL, ~0.03 nM and ~0.03 nM, respectively.
